Conditions: Bacillus amyloliquefaciens, pH 6.3, Thermal, CD, Mes 50 mM, whole UniProt chain shown

B1: Ribonuclease wild type, P00648 (protein)
chain: MMKMEGIALKKRLSWISVCLLVLVSAAGMLFSTAAKTETSSHKAHTEAQVINTFDGVADYLQTYHKLPDNYITKSEAQALGWVASKGNLADVAPGKSIGGDIFSNREGKLPGKSGRTWREADINYTSGFRNSDRILYSSDWLIYKTTDHYQTFTKIR
unfolding free energy (25 °C): 9.5 kcal/mol | Tm: 52.2 °C | unfolding enthalpy (van 't Hoff): 137 kcal/mol

Reference: FireProtDB (doi:10.1021/bi0362267)
